From paper PMC3074120 (Nucleic Acids Research, 2010)

biological target: GST-PIWI (PIWI domain of Ago2) (human, UniProt Q9UKV8 517-818); test: pull-down
Sequence (Q9UKV8 517-818): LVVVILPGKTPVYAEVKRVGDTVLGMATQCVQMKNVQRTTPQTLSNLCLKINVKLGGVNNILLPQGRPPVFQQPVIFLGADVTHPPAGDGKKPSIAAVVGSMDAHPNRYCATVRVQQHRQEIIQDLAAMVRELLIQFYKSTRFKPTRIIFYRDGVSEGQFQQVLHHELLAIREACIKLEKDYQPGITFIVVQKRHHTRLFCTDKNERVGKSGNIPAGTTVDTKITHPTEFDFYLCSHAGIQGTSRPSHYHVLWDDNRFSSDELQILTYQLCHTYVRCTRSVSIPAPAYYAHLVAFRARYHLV

Binder	percent pull-down (of input) [%]
NHA-Δ5 (GW182 fragment Δ5, amino acids 1670-1962) (domain or fragment) TSAWSSIRASNYNVPLSSTAQSTSARNSDSKLTWSPGSVTNTSLAHELWKVPLPPKNITAPSRPPPGLTGQKPPLSTWDNSPLRIGGGWGNSDARYTPGSSWGESSSGRITNWLVLKNLTPQIDGSTLRTLCMQHGPLITFHLNLPHGNALVRYSSKEEVVKAQKSLHMCVLGNTTILAEFASEEEISRFFAQSQSLTPSPGWQSLGSSQSRLGSLDCSHSFSSRTDLNHWNGAGLSGTNCGDLHGTSLWGTPHYSTSLWGPPSSSDPRGISSPSPINAFLSVDHLGGGGESM	4.2
NHA-Δ12 (GW182 fragment Δ12, amino acids 896-1219) (domain or fragment) FTWGNNINPNNSSGWDESSKPTPSQGWGDPPKSNQSLGWGDSSKPVSSPDWNKQQDIVGSWGIPPATGKPPGTGWLGGPIPAPAKEEEPTGWEEPSPESIRRKMEIDDGTSAWGDPSKYNYKNVNMWNKNVPNGNSRSDQQAQVHQLLTPASAISNKEASSGSGWGEPWGEPSTPATTVDNGTSAWGKPIDSGPSWGEPIAAASSTSTWGSSSVGPQALSKSGPKSMQDGWCGDDMPLPGNRPTGWEEEEDVEIGMWNSNSSQELNSSLNWPPYTKKMSSKGLSGKKRRRERGMMKGGNKQEEAWINPFVKQFSNISFSRDSPE	18
NHA-Δ10 (GW182 fragment Δ10, amino acids 655-1343) (domain or fragment) QTNEQSSVWAKTGGTVESDGSTESTGRLEEKGTGESQSRDRRKIDQHTLLQSIVNRTDLDPRVLSNSGWGQTPIKQNTAWDTETSPRGERKTDNGTEAWGSSATQTFNSGACIDKTSPNGNDTSSVSGWGDPKPALRWGDSKGSNCQGGWEDDSAATGMVKSNQWGNCKEEKAAWNDSQKNKQGWGDGQKSSQGWSVSASDNWGETSRNNHWGEANKKSSSGGSDSDRSVSGWNELGKTSSFTWGNNINPNNSSGWDESSKPTPSQGWGDPPKSNQSLGWGDSSKPVSSPDWNKQQDIVGSWGIPPATGKPPGTGWLGGPIPAPAKEEEPTGWEEPSPESIRRKMEIDDGTSAWGDPSKYNYKNVNMWNKNVPNGNSRSDQQAQVHQLLTPASAISNKEASSGSGWGEPWGEPSTPATTVDNGTSAWGKPIDSGPSWGEPIAAASSTSTWGSSSVGPQALSKSGPKSMQDGWCGDDMPLPGNRPTGWEEEEDVEIGMWNSNSSQELNSSLNWPPYTKKMSSKGLSGKKRRRERGMMKGGNKQEEAWINPFVKQFSNISFSRDSPEENVQSNKMDLSGGMLQDKRMEIDKHSLNIGDYNRTVGKGPGSRPQISKESSMERNPYFDKDGIVADESQNMQFMSSQSMKLPPSNSALPNQALGSIAGLGMQNLNSVRQNGNPSMFGVGNTAAQ	≤ 85
NHA-Δ12a (GW182 fragment Δ12a, amino acids 896-1045) (domain or fragment) FTWGNNINPNNSSGWDESSKPTPSQGWGDPPKSNQSLGWGDSSKPVSSPDWNKQQDIVGSWGIPPATGKPPGTGWLGGPIPAPAKEEEPTGWEEPSPESIRRKMEIDDGTSAWGDPSKYNYKNVNMWNKNVPNGNSRSDQQAQVHQLLTP	0.2
